Values joined by “and” are separate entries in the source; they are usually repeats but may differ in a detail not shown here. Equal entries are not always repeated.
Legend:
[1] = target: T1, MNoV (MNV1) strain CW3 VP1 protruding (P) domain (murine norovirus (MNV1 strain CW3), UniProt Q80J94 229-540); assay: BLI
T1 sequence: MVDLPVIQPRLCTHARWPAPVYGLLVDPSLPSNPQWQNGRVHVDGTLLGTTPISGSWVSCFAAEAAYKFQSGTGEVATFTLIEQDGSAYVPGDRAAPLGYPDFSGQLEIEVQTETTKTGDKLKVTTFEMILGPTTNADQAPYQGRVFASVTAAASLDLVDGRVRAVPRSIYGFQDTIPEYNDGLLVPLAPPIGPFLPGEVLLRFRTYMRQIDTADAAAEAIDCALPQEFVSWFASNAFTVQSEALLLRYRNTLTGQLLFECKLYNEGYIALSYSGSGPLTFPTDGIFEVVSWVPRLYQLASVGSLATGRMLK

[2] = target: T1, MNoV (MNV1) strain CW3 VP1 protruding …; assay: ITC
[3] = target: T1, MNoV (MNV1) strain CW3 VP1 protruding …; assay: SPR

B1: Fc–CD300lf fusion protein (Fc fusion)
chain: EDPVTGPEEVSGQEQGSLTVQCRYTSGWKDYKKYWCQGVPQRSCKTLVETDASEQLVKKNRVSIRDNQRDFIFTVTMEDLRMSDAGIYWCGITKGGLDPMFKVTVNIGP
[1]
  Kd: 0.54 µM

B2: murine CD300lf ectodomain (receptor)
chain: MAEDPVTGPEEVSGQEQGSLTVQCRYTSGWKDYKKYWCQGVPQRSCKTLVETDASEQLVKKNRVSIRDNQRDFIFTVTMEDLRMSDAGIYWCGITKGGLDPMFKVTVNIGPVPT
[2]
  Kd: 24.5 µM and ~24.3 µM and 12 µM
  stoichiometry N: ~1
[3]
  Kd: 219 µM

Source: publication PMC6166816 (Proceedings of the National Academy of Sciences of the …, 2018)
